Two proteins from patent publication US20190030114 can be followed below.

Series [1] has as its target T1, striatal-enriched protein tyrosine phosphatase (STEP), P54830.
T1 chain: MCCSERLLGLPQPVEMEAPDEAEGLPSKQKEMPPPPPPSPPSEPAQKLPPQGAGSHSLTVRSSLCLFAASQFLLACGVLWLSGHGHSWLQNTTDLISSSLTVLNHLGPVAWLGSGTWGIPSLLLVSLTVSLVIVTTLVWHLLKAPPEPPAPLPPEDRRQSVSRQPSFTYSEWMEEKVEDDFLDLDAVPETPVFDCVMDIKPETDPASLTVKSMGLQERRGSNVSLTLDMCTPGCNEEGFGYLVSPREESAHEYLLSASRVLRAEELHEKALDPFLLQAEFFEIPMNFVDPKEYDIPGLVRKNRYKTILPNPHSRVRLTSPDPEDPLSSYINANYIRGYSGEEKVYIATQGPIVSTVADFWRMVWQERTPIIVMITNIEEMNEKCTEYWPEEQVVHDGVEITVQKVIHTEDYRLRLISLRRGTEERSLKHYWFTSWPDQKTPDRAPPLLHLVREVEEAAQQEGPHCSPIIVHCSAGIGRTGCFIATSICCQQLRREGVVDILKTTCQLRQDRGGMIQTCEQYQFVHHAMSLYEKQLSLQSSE

B1: calpain-2 (m-calpain), Mus musculus (protein)
chain: SHERAIKYLNQDYETLRNECLEAGALFQDPSFPALPSSLGYKELGPYSSKTRGIEWKRPTEICADPQFIIGGATRTDICQGALGDCWLLAAIASLTLNEEILARVVPPDQSFQENYAGIFHFQFWQYGEWVEVVVDDRLPTKDGELLFVHSAEGSEFWSALLEKAYAKINGCYETLSGGATTEGFEDFTGGIAEWYELRKPPPNLFKIIQKALEKGSLLGCSIDITSAADSEAVTYQKLVKGHAYSVTGAEEVESSGSLQKLIRIRNPWGQVEWTGKWNDNCPSWNTVDPEVRANLTERQEDGEFWMSFSDFLRHYSRLEICNLTPDTLTCDSYKKWKLTKMDGNWRRGSTAGGCRNYPNTFWMNPQYLIKLEEEDEDEEDGGRGCTFLVGLIQKHRRRQRKMGEDMHTIGFGIYEVPEELTGQTNIHLGKNFFLTTRARERSDTFINLREVLNRFKLPPGEYVLVPSTFEPHKDGDFCIRVFSEKKADYQAVDDEIEANIEEIDANEEDIDDGFRRLFVQLAGEDAEISAFELQTILRRVLAKRQDIKSDGFSIETCKIMVDMLDEDGSGKLGLKEFYILWTKIQKYQKIYREIDVDRSGTMNSYEMRKALEEAGFKLPCQLHQVIVARFADDELIIDFDNFVRCLVRLETLFKIFKQLDPENTGTIQLNLASWLSFSVL
Turning to B1, in series [1], the “STEP33 (cleavage product of STEP), Western blot of retina 3 h after IOP elevation” value was “STEP33 was present in WT and calpain-1 KO mice but not in C2l-injected WT mice following increased IOP”. The “SBDP levels, immunoblot of mouse retinal extracts 6 h after intravitreal NMDA injection” value with spectrin, P16546 is “Levels of SBDP were significantly increased; injection of C2l significantly suppressed NMDA-induced changes in SBDP”.

B2: calpain-1 (µ-calpain), Mus musculus (protein)
chain: MTEELITPVYCTGVSAQVQKKRDKELGLGRHENAIKYLGQDYETLRARCLQSGVLFQDEAFPPVSHSLGFKELGPHSSKTYGIKWKRPTELMSNPQFIVDGATRTDICQGALGDCWLLAAIASLTLNETILHRVVPYGQSFQDGYAGIFHFQLWQFGEWVDVVIDDLLPTKDGKLVFVHSAQGNEFWSALLEKAYAKVNGSYEALSGGCTSEAFEDFTGGVTEWYDLQKAPSDLYQIILKALERGSLLGCSINISDIRDLEAITFKNLVRGHAYSVTGAKQVTYQGQRVNLIRMRNPWGEVEWKGPWSDSSYEWNKVDPYEREQLRVKMEDGEFWMSFRDFIREFTKLEICNLTPDALKSRTLRNWNTTFYEGTWRRGSTAGGCRNYPATFWVNPQFKIRLEEVDDADDYDNRESGCSFLLALMQKHRRRERRFGRDMETIGFAVYQVPRELAGQPVHLKRDFFLANASRAQSEHFINLREVSNRIRPPPGEYIVVPSTFEPNKEGDFLLRFFSEKKAGTQELDDQIQANLPDEKVLSEEEIDDNFKTLFSKLAGDDMEISVKELQTILNRIISKHKDLRTNGFSLESCRSMVNLMDRDGNGKLGLVEFNILWNRIRNYLTIFRKFDLDKSGSMSAYEMRMAIEAAGFKLNKKLHELIITRYSEPDLAVDFDNFVCCLVRLETMFRFFKLLDTDLNGVVTFDLFKWLQLTMFA
As for B2, in series [1], the “STEP33 (cleavage product of STEP), Western blot of retina 3 h after IOP elevation” value was “STEP33 was present in WT and calpain-1 KO mice (no part of calpain-1)”.
